Reference: patent US5856135, “Reshaped human antibody to human interleukin-6” (Chugai Seiyaku Kabushiki Kaisha, dated 1999)
Changes are numbered by the printed parent chain.

B1: chimeric SK2 antibody (antibody, V domains shown)
VH: QVTLKESGPGILQPSQTLSLTCSFSGFSLNTSGMTVGWIRQPSGKGLEWLAHIWWNDDKYYNPALKGRLTISKDTSNNQVFLKIASVVTADTATYYCARMEDYDEAMDYWGQGTSVTVSS
VL: DIQMTQSPASLSVSVGETVTITCRASENIYSNLAWYQQKQGKSPQLLVYAATYLADGVPSRFSGSGSGTQYSLKINSLQSEDFGSYYCQHFWGTPPFGSGTKLEIK
B2: antibody comprising reshaped L chain version "b" and chimeric H chain (antibody, V domains shown)
VH: B1 VH
VL: DIQMTQSPSSLSASVGDRVTITCRASENIYSNLAWYQQKPGKAPKLLIYAATYLADGVPSRFSGSGSGTDYTFTISSLQPEDIATYYCQHFWGTPPFGQGTKVEIK
B3: antibody comprising reshaped L chain version "a" and chimeric H chain (antibody, V domains shown)
VH: B1 VH
VL: B2 VL with Y71F
B4: reshaped human SK2 antibody, L chain version "a" and H chain version "a" (antibody, V domains shown)
VH: QVTLRESGPALVRPTQTLTLTCTFSGFSLSTSGMTVGWIRQPPGEALEWLAHIWWNDDKYYNPALKGRLAVSKDTSKNQVVLSMNTVGPGDTATYYCARMEDYDEAMDYWGQGILVTVSS
VL: B2 VL with Y71F
B5: reshaped human SK2 antibody, L chain version "b" and H chain version "b" (antibody, V domains shown)
VH: B4 VH with S30N
VL: B2 VL
B6: reshaped human SK2 antibody, L chain version "a" and H chain version "b" (antibody, V domains shown)
VH: B4 VH with S30N
VL: B2 VL with Y71F
B7: reshaped human SK2 antibody, L chain version "b" and H chain version "a" (antibody, V domains shown)
VH: B4 VH
VL: B2 VL

Tests used:
recombinant human IL-6 [1] = biological target: T1, recombinant human IL-6 (human, UniProt P05231); test: ELISA, told in the description of the chimeric antibody
Description: (§1) An ELISA plate for antigen-binding assay was prepared as follows. A 96-well plate was coated with mouse monoclonal antibody MH166 recognizing a different epitope of human IL-6 from that recognized by SK2 (Matsuda, T. et al., Eur. J. Immunol. 18, 951–956, 1988), and after blocking, recombinant human IL-6 was added thereto. A sample of the chimeric SK2 antibody was sequentially diluted, added to each well, and then an alkaline phosphatase-conjugated goat anti-human IgG antibody (Sigma) was added thereto. After incubation and washing, substrate was added, and absorbance at 405 nm was measured.

biotinylated IL-6 [2] = biological target: T2, biotinylated IL-6 (human, UniProt P05231, biotinylated (site not stated)); test: binding-inhibition ELISA, IL-6 to IL-6R (FIG. 10), reference
Description: (§2) For binding-inhibition assay, an ELISA plate was prepared as follows. A 96-well plate was coated with mouse monoclonal antibody, MT-18 (Hirata, Y. et al., J. Immunol., 143, 2900–2907, 1989), specific to human IL-6 receptor (IL-6R), and, after blocking, soluble recombinant human IL-6R (SR344) (Yasukawa, K. et al., J. Biochem. 108, 673–676, 1990) was added thereto. A sample of this chimeric SK2 antibody was sequentially diluted, and added with biotinylated IL-6 to each well, and after adding an alkaline phosphatase-conjugated streptavidin thereto, absorbance at 405 nm was measured.

recombinant human IL-6 [3] = biological target: T1, recombinant human IL-6; test: antigen-binding ELISA (FIG. 8)
Description: as §1

recombinant human IL-6 [4] = biological target: T1, recombinant human IL-6; test: antigen-binding ELISA (FIG. 9)
Description: as §1

biotinylated IL-6 [5] = biological target: T2, biotinylated IL-6; test: binding-inhibition ELISA, IL-6 to IL-6R (FIG. 10)
Description: as §2

Binder	binding result (recombinant human IL-6 [4])	binding result (biotinylated IL-6 [5])	also measured
B1	–	–	binding result (recombinant human IL-6 [1]): binds; binding result (biotinylated IL-6 [2]): binds
B2	–	–	binding result (recombinant human IL-6 [3]): binds
B3	–	–	binding result (recombinant human IL-6 [3]): binds
B4	binds	binds	–
B5	binds	–	–
B6	binds	binds	–
B7	binds	binds	–
